# Test results as given in publication PMC6019326.
# Read-outs that look alike come from different tables or passages of the source.
# What was measured:
# Test in all cases: SPR
# [1] = biological target: recombinant APOL1 G1 protein (His-tag fused, risk variant) (human) (UniProt O14791)
# [2] = biological target: recombinant APOL1 G2 protein (His-tag fused, risk variant) (human) (UniProt O14791)
# [3] = biological target: recombinant APOL1 G0 protein (His-tag fused, reference allele) (human) (UniProt O14791)
# [4] = biological target: recombinant APOL1 G1 protein (His-tag fused, risk variant) (human) (UniProt O14791); remark: listed apart in the source
# [5] = biological target: recombinant APOL1 G2 protein (His-tag fused, risk variant) (human) (UniProt O14791); remark: listed apart in the source
Kd [1] [µM],Kd [2] [µM],KD for suPAR in the presence of αvβ3 integrin (5 nM) with Mn2+ [1] [µM],KD for suPAR in the presence of αvβ3 integrin (5 nM) with Mn2+ [2] [µM],Kd [3] [µM],Kd [4] [µM],Kd [5] [µM],Substance
> 1000,> 1000,,,,,,human integrin α3β1 (from UniProt P26006 33-1051; P05556 21-728) (complex)
,,0.277,0.024,,,,"human suPAR (soluble urokinase plasminogen activator receptor), recombinant (from UniProt Q03405 23-305)"
0.528,10.7,,,0.574,0.007,0.007,human recombinant protein integrin αvβ3 (from UniProt P06756 31-1048; P05106 27-718) (complex)
